What was measured:
[1] = target: NyxA (purified, not held on the resin) (Brucella abortus 2308) (UniProt Q2YPD9); assay: […]
[2] = target: NyxB (untagged, His tag cleaved with TEV) (Brucella abortus 2308) (UniProt Q2YPZ9); assay: […]

Substance | stoichiometry N [1] | stoichiometry N [2]
NyxA (purified, not held on the resin) (from UniProt Q2YPD9 1-129) (natural protein) | 2 | –
NyxB (untagged, His tag cleaved with TEV) (from UniProt Q2YPZ9 1-134) (natural protein) | – | 2
